Laboratory results from paper PMC9482650, “Quantitative fragmentomics allow affinity mapping of interactomes” (Nature Communications, 2022).

T1: APBA1_2, Q02410
T1 sequence (Q02410 742-832, limits assumed, looked up): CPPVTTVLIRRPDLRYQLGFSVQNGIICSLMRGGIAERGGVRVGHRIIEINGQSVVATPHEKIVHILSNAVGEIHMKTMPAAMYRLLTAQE

T2: GRIP1_2, Q9Y3R0
T2 sequence (Q9Y3R0 145-248, limits assumed, looked up): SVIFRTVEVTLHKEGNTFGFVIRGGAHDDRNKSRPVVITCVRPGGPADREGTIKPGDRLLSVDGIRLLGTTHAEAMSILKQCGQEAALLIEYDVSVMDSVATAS

T3: PCLO, Q9Y6V0
T3 sequence (Q9Y6V0 4491-4600, limits assumed, looked up): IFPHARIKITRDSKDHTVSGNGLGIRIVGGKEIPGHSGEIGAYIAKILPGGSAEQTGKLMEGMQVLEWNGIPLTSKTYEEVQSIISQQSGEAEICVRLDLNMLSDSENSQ

T4: GRIP1_3, Q9Y3R0
T4 sequence (Q9Y3R0 247-346, limits assumed, looked up): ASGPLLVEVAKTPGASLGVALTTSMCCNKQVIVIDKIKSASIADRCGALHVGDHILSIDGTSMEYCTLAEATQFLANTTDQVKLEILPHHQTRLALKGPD

T5: HTRA4, P83105
T5 sequence (P83105 378-476, limits assumed, looked up): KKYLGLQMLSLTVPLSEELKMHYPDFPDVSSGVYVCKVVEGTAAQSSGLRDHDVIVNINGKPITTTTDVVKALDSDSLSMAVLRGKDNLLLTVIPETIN

T6: APBA1_1, Q02410
T6 sequence (Q02410 651-752, limits assumed, looked up): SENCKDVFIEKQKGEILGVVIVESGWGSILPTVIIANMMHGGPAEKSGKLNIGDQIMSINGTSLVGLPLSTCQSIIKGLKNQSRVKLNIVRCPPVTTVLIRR

T7: GRIP1_4, Q9Y3R0
T7 sequence (Q9Y3R0 467-571, limits assumed, looked up): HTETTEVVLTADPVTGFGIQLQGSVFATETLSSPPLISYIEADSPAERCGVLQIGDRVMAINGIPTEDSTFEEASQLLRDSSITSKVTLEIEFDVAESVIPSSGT

T8: LRRC7, Q96NW7
T8 sequence (Q96NW7 1440-1537, limits assumed, looked up): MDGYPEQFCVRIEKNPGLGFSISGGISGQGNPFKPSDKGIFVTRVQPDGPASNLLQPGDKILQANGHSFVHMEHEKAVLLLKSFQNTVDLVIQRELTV

T9: PARD3B_1, Q8TEW8
T9 sequence (Q8TEW8 196-299, limits assumed, looked up): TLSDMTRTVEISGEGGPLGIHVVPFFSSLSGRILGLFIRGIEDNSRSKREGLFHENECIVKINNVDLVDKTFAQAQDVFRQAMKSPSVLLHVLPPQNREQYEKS

T10: TIAM2, Q8IVF5
T10 sequence (Q8IVF5 885-986, limits assumed, looked up): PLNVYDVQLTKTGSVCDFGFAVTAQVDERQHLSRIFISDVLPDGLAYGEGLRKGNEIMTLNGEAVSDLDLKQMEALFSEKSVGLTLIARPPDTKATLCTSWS

T11: LIN7A, O14910
T11 sequence (O14910 103-200, limits assumed, looked up): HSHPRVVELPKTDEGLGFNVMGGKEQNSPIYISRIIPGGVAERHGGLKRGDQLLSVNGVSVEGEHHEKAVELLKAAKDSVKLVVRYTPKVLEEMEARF


Each binder was assayed against FRMPD2_2, Q68DX3 (assay: holdup assay). Details: plain residues with an end cap or a label only (N-terminal biotin on a linker: ado-ado).
Sequence of FRMPD2_2, Q68DX3 (Q68DX3 944-1038): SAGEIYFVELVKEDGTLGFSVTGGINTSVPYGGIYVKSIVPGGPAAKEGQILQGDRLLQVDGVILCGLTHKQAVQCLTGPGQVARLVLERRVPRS
Design: key: below the threshold = too weak to quantify, mostly under pKd 3.1 to 4
For VLYPREGTEV [FOXI1, Q12951], the pKd was 3.54.
MHIQEKGFHV [EPHA6, Q9UF33] was tested, and the pKd was “below the threshold”.

What follows are binders tested against DLG5_1, Q8TDM6 (assay: holdup assay). Details: plain residues with an end cap or a label only (N-terminal biotin on a linker: ado-ado).
Sequence of DLG5_1, Q8TDM6 (Q8TDM6 617-713): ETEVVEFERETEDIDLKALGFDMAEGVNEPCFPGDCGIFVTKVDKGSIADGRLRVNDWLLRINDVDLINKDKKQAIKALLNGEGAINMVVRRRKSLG
Design: key: below the threshold = too weak to quantify, mostly under pKd 3.1 to 4
With VLYPREGTEV [FOXI1, Q12951] the pKd was “below the threshold”.
In the case of MHIQEKGFHV [EPHA6, Q9UF33], the pKd is reported as “below the threshold”.

The binders below were run against MAGI2_2, Q86UL8 (assay: holdup assay). Details: plain residues with an end cap or a label only (N-terminal biotin on a linker: ado-ado).
Sequence of MAGI2_2, Q86UL8 (Q86UL8 410-522): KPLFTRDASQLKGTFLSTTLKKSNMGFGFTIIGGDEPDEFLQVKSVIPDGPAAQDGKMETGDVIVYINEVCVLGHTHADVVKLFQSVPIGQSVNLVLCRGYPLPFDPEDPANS
Design: key: below the threshold = too weak to quantify, mostly under pKd 3.1 to 4
For VLYPREGTEV [FOXI1, Q12951], the pKd was 3.74.
With MHIQEKGFHV [EPHA6, Q9UF33] the pKd was “below the threshold”.

These binders were tested against PICK1, Q9NRD5 (assay: holdup assay). Details: plain residues with an end cap or a label only (N-terminal biotin on a linker: ado-ado).
Sequence of PICK1, Q9NRD5 (Q9NRD5 17-115): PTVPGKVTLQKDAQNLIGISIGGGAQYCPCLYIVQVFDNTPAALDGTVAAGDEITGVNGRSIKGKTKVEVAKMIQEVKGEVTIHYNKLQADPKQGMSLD
Design: key: below the threshold = too weak to quantify, mostly under pKd 3.1 to 4
VLYPREGTEV [FOXI1, Q12951] showed a pKd of 4.21.
MHIQEKGFHV [EPHA6, Q9UF33] was tested, and the pKd was 4.18.

What follows are binders tested against Inadl_9, Q8NI35 (assay: holdup assay). Details: plain residues with an end cap or a label only (N-terminal biotin on a linker: ado-ado).
Sequence of Inadl_9, Q8NI35 (Q8NI35 1530-1615): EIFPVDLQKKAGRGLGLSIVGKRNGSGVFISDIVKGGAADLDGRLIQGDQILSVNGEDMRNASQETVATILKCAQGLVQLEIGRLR
Design: key: below the threshold = too weak to quantify, mostly under pKd 3.1 to 4
Work on VLYPREGTEV [FOXI1, Q12951] yielded a pKd of 4.03.
MHIQEKGFHV [EPHA6, Q9UF33] was tested, and the pKd was “below the threshold”.

These binders were tested against Inadl_8, Q8NI35 (assay: holdup assay). Details: plain residues with an end cap or a label only (N-terminal biotin on a linker: ado-ado).
Sequence of Inadl_8, Q8NI35 (Q8NI35 1425-1530): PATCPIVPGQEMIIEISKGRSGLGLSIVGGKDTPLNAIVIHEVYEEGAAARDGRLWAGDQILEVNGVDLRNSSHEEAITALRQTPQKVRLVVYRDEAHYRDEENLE
Design: key: below the threshold = too weak to quantify, mostly under pKd 3.1 to 4
VLYPREGTEV [FOXI1, Q12951] gave a pKd of 3.82.
MHIQEKGFHV [EPHA6, Q9UF33] was tested, and the pKd was “below the threshold”.

The binders below were run against T1, APBA1_2, Q02410 (assay: holdup assay). Details: plain residues with an end cap or a label only (N-terminal biotin on a linker: ado-ado).
Design: key: below the threshold = too weak to quantify, mostly under pKd 3.1 to 4
VLYPREGTEV [FOXI1, Q12951] showed a pKd of 4.51.
For MHIQEKGFHV [EPHA6, Q9UF33], the pKd was “below the threshold”.

What follows are binders tested against T2, GRIP1_2, Q9Y3R0 (assay: holdup assay). Details: plain residues with an end cap or a label only (N-terminal biotin on a linker: ado-ado).
Design: key: below the threshold = too weak to quantify, mostly under pKd 3.1 to 4
With VLYPREGTEV [FOXI1, Q12951] the pKd was “below the threshold”.
With MHIQEKGFHV [EPHA6, Q9UF33] the pKd was “below the threshold”.

These binders were tested against GOPC, Q9HD26 (assay: holdup assay). Details: plain residues with an end cap or a label only (N-terminal biotin on a linker: ado-ado).
Design: key: below the threshold = too weak to quantify, mostly under pKd 3.1 to 4
In the case of VLYPREGTEV [FOXI1, Q12951], the pKd is reported as 3.52.
In the case of MHIQEKGFHV [EPHA6, Q9UF33], the pKd is reported as “below the threshold”.

What follows are binders tested against T3, PCLO, Q9Y6V0 (assay: holdup assay). Details: plain residues with an end cap or a label only (N-terminal biotin on a linker: ado-ado).
Design: key: below the threshold = too weak to quantify, mostly under pKd 3.1 to 4
VLYPREGTEV [FOXI1, Q12951] was tested, and the pKd was “below the threshold”.
In the case of MHIQEKGFHV [EPHA6, Q9UF33], the pKd is reported as “below the threshold”.

These binders were tested against GRIP2_3, Q9C0E4 (assay: holdup assay). Details: plain residues with an end cap or a label only (N-terminal biotin on a linker: ado-ado).
Sequence of GRIP2_3, Q9C0E4 (Q9C0E4 238-339): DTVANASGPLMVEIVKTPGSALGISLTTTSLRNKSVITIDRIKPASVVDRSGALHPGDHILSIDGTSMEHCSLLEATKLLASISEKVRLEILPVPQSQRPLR
Design: key: below the threshold = too weak to quantify, mostly under pKd 3.1 to 4
For VLYPREGTEV [FOXI1, Q12951], the pKd was “below the threshold”.
With MHIQEKGFHV [EPHA6, Q9UF33] the pKd was “below the threshold”.

The binders below were run against ARHGEF12, Q9NZN5-2 (assay: holdup assay). Details: plain residues with an end cap or a label only (N-terminal biotin on a linker: ado-ado).
Sequence of ARHGEF12, Q9NZN5-2 (Q9NZN5 other isoform, or with tags, fused parts or gaps): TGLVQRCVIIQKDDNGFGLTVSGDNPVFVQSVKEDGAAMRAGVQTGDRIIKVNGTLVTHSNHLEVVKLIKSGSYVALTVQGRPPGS
Design: key: below the threshold = too weak to quantify, mostly under pKd 3.1 to 4
VLYPREGTEV [FOXI1, Q12951] showed a pKd of 4.08.
In the case of MHIQEKGFHV [EPHA6, Q9UF33], the pKd is reported as “below the threshold”.

These binders were tested against T4, GRIP1_3, Q9Y3R0 (assay: holdup assay). Details: plain residues with an end cap or a label only (N-terminal biotin on a linker: ado-ado).
Design: key: below the threshold = too weak to quantify, mostly under pKd 3.1 to 4
With VLYPREGTEV [FOXI1, Q12951] the pKd was “below the threshold”.
In the case of MHIQEKGFHV [EPHA6, Q9UF33], the pKd is reported as “below the threshold”.

The binders below were run against PDZRN4_1, Q6ZMN7 (assay: holdup assay). Details: plain residues with an end cap or a label only (N-terminal biotin on a linker: ado-ado).
Sequence of PDZRN4_1, Q6ZMN7 (Q6ZMN7 213-318): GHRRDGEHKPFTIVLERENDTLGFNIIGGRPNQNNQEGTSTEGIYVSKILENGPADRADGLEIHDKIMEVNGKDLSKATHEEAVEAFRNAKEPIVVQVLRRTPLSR
Design: key: below the threshold = too weak to quantify, mostly under pKd 3.1 to 4
VLYPREGTEV [FOXI1, Q12951] gave a pKd of 4.25.
MHIQEKGFHV [EPHA6, Q9UF33] was tested, and the pKd was “below the threshold”.

Each binder was assayed against T5, HTRA4, P83105 (assay: holdup assay). Details: plain residues with an end cap or a label only (N-terminal biotin on a linker: ado-ado).
Design: key: below the threshold = too weak to quantify, mostly under pKd 3.1 to 4
For VLYPREGTEV [FOXI1, Q12951], the pKd was 4.29.
In the case of MHIQEKGFHV [EPHA6, Q9UF33], the pKd is reported as 3.49.

These binders were tested against NHERF2_2, Q15599 (assay: holdup assay). Details: plain residues with an end cap or a label only (N-terminal biotin on a linker: ado-ado).
Sequence of NHERF2_2, Q15599 (Q15599 142-238): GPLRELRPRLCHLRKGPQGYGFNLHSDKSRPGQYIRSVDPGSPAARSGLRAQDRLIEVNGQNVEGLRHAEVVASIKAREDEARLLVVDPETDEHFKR
Design: key: below the threshold = too weak to quantify, mostly under pKd 3.1 to 4
In the case of VLYPREGTEV [FOXI1, Q12951], the pKd is reported as 3.48.
With MHIQEKGFHV [EPHA6, Q9UF33] the pKd was “below the threshold”.

What follows are binders tested against Inadl_2, Q8NI35 (assay: holdup assay). Details: plain residues with an end cap or a label only (N-terminal biotin on a linker: ado-ado).
Sequence of Inadl_2, Q8NI35 (Q8NI35 238-335): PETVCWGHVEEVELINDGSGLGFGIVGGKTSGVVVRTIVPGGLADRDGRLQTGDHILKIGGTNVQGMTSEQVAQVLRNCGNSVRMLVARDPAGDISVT
Design: key: below the threshold = too weak to quantify, mostly under pKd 3.1 to 4
With VLYPREGTEV [FOXI1, Q12951] the pKd was “below the threshold”.
With MHIQEKGFHV [EPHA6, Q9UF33] the pKd was “below the threshold”.

Each binder was assayed against NOS1, P29475 (assay: holdup assay). Details: plain residues with an end cap or a label only (N-terminal biotin on a linker: ado-ado).
Sequence of NOS1, P29475 (P29475 9-101): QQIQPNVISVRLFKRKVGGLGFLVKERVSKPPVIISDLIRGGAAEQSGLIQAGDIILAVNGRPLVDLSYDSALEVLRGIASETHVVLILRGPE
Design: key: below the threshold = too weak to quantify, mostly under pKd 3.1 to 4
For VLYPREGTEV [FOXI1, Q12951], the pKd was 4.05.
MHIQEKGFHV [EPHA6, Q9UF33] showed a pKd of 3.62.

Each binder was assayed against T6, APBA1_1, Q02410 (assay: holdup assay). Details: plain residues with an end cap or a label only (N-terminal biotin on a linker: ado-ado).
Design: key: below the threshold = too weak to quantify, mostly under pKd 3.1 to 4
In the case of VLYPREGTEV [FOXI1, Q12951], the pKd is reported as “below the threshold”.
MHIQEKGFHV [EPHA6, Q9UF33] was tested, and the pKd was “below the threshold”.

These binders were tested against T7, GRIP1_4, Q9Y3R0 (assay: holdup assay). Details: plain residues with an end cap or a label only (N-terminal biotin on a linker: ado-ado).
Design: key: below the threshold = too weak to quantify, mostly under pKd 3.1 to 4
In the case of VLYPREGTEV [FOXI1, Q12951], the pKd is reported as “below the threshold”.
In the case of MHIQEKGFHV [EPHA6, Q9UF33], the pKd is reported as “below the threshold”.

These binders were tested against T8, LRRC7, Q96NW7 (assay: holdup assay). Details: plain residues with an end cap or a label only (N-terminal biotin on a linker: ado-ado).
Design: key: below the threshold = too weak to quantify, mostly under pKd 3.1 to 4
For VLYPREGTEV [FOXI1, Q12951], the pKd was 3.49.
For MHIQEKGFHV [EPHA6, Q9UF33], the pKd was “below the threshold”.

What follows are binders tested against PARD3_3, Q8TEW0 (assay: holdup assay). Details: plain residues with an end cap or a label only (N-terminal biotin on a linker: ado-ado).
Sequence of PARD3_3, Q8TEW0 (Q8TEW0 582-685): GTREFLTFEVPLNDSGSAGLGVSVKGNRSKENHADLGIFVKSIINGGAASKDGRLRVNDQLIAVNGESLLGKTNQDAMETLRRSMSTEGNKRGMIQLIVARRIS
Design: key: below the threshold = too weak to quantify, mostly under pKd 3.1 to 4
For VLYPREGTEV [FOXI1, Q12951], the pKd was “below the threshold”.
For MHIQEKGFHV [EPHA6, Q9UF33], the pKd was “below the threshold”.

What follows are binders tested against T9, PARD3B_1, Q8TEW8 (assay: holdup assay). Details: plain residues with an end cap or a label only (N-terminal biotin on a linker: ado-ado).
Design: key: below the threshold = too weak to quantify, mostly under pKd 3.1 to 4
In the case of VLYPREGTEV [FOXI1, Q12951], the pKd is reported as “below the threshold”.
Work on MHIQEKGFHV [EPHA6, Q9UF33] yielded a pKd of 4.89.

The binders below were run against T10, TIAM2, Q8IVF5 (assay: holdup assay). Details: plain residues with an end cap or a label only (N-terminal biotin on a linker: ado-ado).
Design: key: below the threshold = too weak to quantify, mostly under pKd 3.1 to 4
VLYPREGTEV [FOXI1, Q12951] was tested, and the pKd was “below the threshold”.
With MHIQEKGFHV [EPHA6, Q9UF33] the pKd was “below the threshold”.

The binders below were run against T11, LIN7A, O14910 (assay: holdup assay). Details: plain residues with an end cap or a label only (N-terminal biotin on a linker: ado-ado).
Design: key: below the threshold = too weak to quantify, mostly under pKd 3.1 to 4
For VLYPREGTEV [FOXI1, Q12951], the pKd was “below the threshold”.
MHIQEKGFHV [EPHA6, Q9UF33] was tested, and the pKd was “below the threshold”.

These binders were tested against DLG2_2, Q15700 (assay: holdup assay). Details: plain residues with an end cap or a label only (N-terminal biotin on a linker: ado-ado).
Sequence of DLG2_2, Q15700 (Q15700 189-283): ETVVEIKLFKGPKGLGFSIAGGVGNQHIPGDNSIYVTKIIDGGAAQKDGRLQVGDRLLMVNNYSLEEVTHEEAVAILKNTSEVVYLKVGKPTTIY
Design: key: below the threshold = too weak to quantify, mostly under pKd 3.1 to 4
VLYPREGTEV [FOXI1, Q12951] showed a pKd of 4.45.
MHIQEKGFHV [EPHA6, Q9UF33] was tested, and the pKd was “below the threshold”.
